10 molecules from US12099068B2, “Biomarkers for graft-versus-host disease” (Incyte Corporation, priority 2018, dated 2024) can be followed below.

B1: XPNPEP2 (protein, UniProt O43895 22-649, looked up)
Xaa-Pro aminopeptidase 2: HTKPVDLGGQDVRNCSTNPPYLPVTVVNTTMSLTALRQQMQTQNLSAYIIPGTDAHMNEYIGQHDERRAWITGFTGSAGTAVVTMKKAAVWTDSRYWTQAERQMDCNWELHKEVGTTPIVTWLLTEIPAGGRVGFDPFLLSIDTWESYDLALQGSNRQLVSITTNLVDLVWGSERPPVPNQPIYALQEAFTGSTWQEKVSGVRSQMQKHQKVPTAVLLSALEETAWLFNLRASDIPYNPFFYSYTLLTDSSIRLFANKSRFSSETLSYLNSSCTGPMCVQIEDYSQVRDSIQAYSLGDVRIWIGTSYTMYGIYEMIPKEKLVTDTYSPVMMTKAVKNSKEQALLKASHVRDAVAVIRYLVWLEKNVPKGTVDEFSGAEIVDKFRGEEQFSSGPSFETISASGLNAALAHYSPTKELNRKLSSDEMYLLDSGGQYWDGTTDITRTVHWGTPSAFQKEAYTRVLIGNIDLSRLIFPAATSGRMVEAFARRALWDAGLNYGHGTGHGIGNFLCVHEWPVGFQSNNIAMAKGMFTSIEPGYYKDGEFGIRLEDVALVVEAKTKYPGSYLTFEVVSFVPYDRNLIDVSLLSPEHLQYLNRYYQTIREKVGPELQRRQLLEEFEWLQQHTEPLA
B2: NQO2 (protein, UniProt P16083 1-231, looked up)
Ribosyldihydronicotinamide …: MAGKKVLIVYAHQEPKSFNGSLKNVAVDELSRQGCTVTVSDLYAMNLEPRATDKDITGTLSNPEVFNYGVETHEAYKQRSLASDITDEQKKVREADLVIFQFPLYWFSVPAILKGWMDRVLCQGFAFDIPGFYDSGLLQGKLALLSVTTGGTAEMYTKTGVNGDSRYFLWPLQHGTLHFCGFKVLAPQISFAPEIASEEERKGMVAAWSQRLQTIWKEEPIPCTAHWHFGQ
B3: EDIL3 (protein, UniProt O43854 24-480, looked up)
EGF-like repeat and discoidin …: DICDPNPCENGGICLPGLADGSFSCECPDGFTDPNCSSVVEVASDEEEPTSAGPCTPNPCHNGGTCEISEAYRGDTFIGYVCKCPRGFNGIHCQHNINECEVEPCKNGGICTDLVANYSCECPGEFMGRNCQYKCSGPLGIEGGIISNQQITASSTHRALFGLQKWYPYYARLNKKGLINAWTAAENDRWPWIQINLQRKMRVTGVITQGAKRIGSPEYIKSYKIAYSNDGKTWAMYKVKGTNEDMVFRGNIDNNTPYANSFTPPIKAQYVRLYPQVCRRHCTLRMELLGCELSGCSEPLGMKSGHIQDYQITASSIFRTLNMDMFTWEPRKARLDKQGKVNAWTSGHNDQSQWLQVDLLVPTKVTGIITQGAKDFGHVQFVGSYKLAYSNDGEHWTVYQDEKQRKDKVFQGNFDNDTHRKNVIDPPIYARHIRILPWSWYGRITLRSELLGCTEEE
B4: SIGLEC10 (protein, UniProt Q96LC7 17-697, looked up)
Sialic acid-binding Ig-like …: MDGRFWIRVQESVMVPEGLCISVPCSFSYPRQDWTGSTPAYGYWFKAVTETTKGAPVATNHQSREVEMSTRGRFQLTGDPAKGNCSLVIRDAQMQDESQYFFRVERGSYVRYNFMNDGFFLKVTALTQKPDVYIPETLEPGQPVTVICVFNWAFEECPPPSFSWTGAALSSQGTKPTTSHFSVLSFTPRPQDHNTDLTCHVDFSRKGVSAQRTVRLRVAYAPRDLVISISRDNTPALEPQPQGNVPYLEAQKGQFLRLLCAADSQPPATLSWVLQNRVLSSSHPWGPRPLGLELPGVKAGDSGRYTCRAENRLGSQQRALDLSVQYPPENLRVMVSQANRTVLENLGNGTSLPVLEGQSLCLVCVTHSSPPARLSWTQRGQVLSPSQPSDPGVLELPRVQVEHEGEFTCHARHPLGSQHVSLSLSVHYSPKLLGPSCSWEAEGLHCSCSSQASPAPSLRWWLGEELLEGNSSQDSFEVTPSSAGPWANSSLSLHGGLSSGLRLRCEAWNVHGAQSGSILQLPDKKGLISTAFSNGAFLGIGITALLFLCLALIIMKILPKRRTQTETPRPRFSRHSTILDYINVVPTAGPLAQKRNQKATPNSPRTPLPPGAPSPESKKNQKKQYQLPSFPEPKSSTQAPESQESQEELHYATLNFPGVRPRPEARMPKGTQADYAEVKFQ
B5: TRAF2 (protein, UniProt Q12933 2-501, looked up)
TNF receptor-associated …: AAASVTPPGSLELLQPGFSKTLLGTKLEAKYLCSACRNVLRRPFQAQCGHRYCSFCLASILSSGPQNCAACVHEGIYEEGISILESSSAFPDNAARREVESLPAVCPSDGCTWKGTLKEYESCHEGRCPLMLTECPACKGLVRLGEKERHLEHECPERSLSCRHCRAPCCGADVKAHHEVCPKFPLTCDGCGKKKIPREKFQDHVKTCGKCRVPCRFHAIGCLETVEGEKQQEHEVQWLREHLAMLLSSVLEAKPLLGDQSHAGSELLQRCESLEKKTATFENIVCVLNREVERVAMTAEACSRQHRLDQDKIEALSSKVQQLERSIGLKDLAMADLEQKVLEMEASTYDGVFIWKISDFARKRQEAVAGRIPAIFSPAFYTSRYGYKMCLRIYLNGDGTGRGTHLSLFFVVMKGPNDALLRWPFNQKVTLMLLDQNNREHVIDAFRPDVTSSSFQRPVNDMNIASGCPLFCPVSKMEAKNSYVRDDAIFIKAIVDLTGL
B6: PIK3AP1 (protein, UniProt Q6ZUJ8 1-805, looked up)
Phosphoinositide 3-kinase …: MAASGVPRGCDILIVYSPDAEEWCQYLQTLFLSSRQVRSQKILTHRLGPEASFSAEDLSLFLSTRCVVVLLSAELVQHFHKPALLPLLQRAFHPPHRVVRLLCGVRDSEEFLDFFPDWAHWQELTCDDEPETYVAAVKKAISEDSGCDSVTDTEPEDEKVVSYSKQQNLPTVTSPGNLMVVQPDRIRCGAETTVYVIVRCKLDDRVATEAEFSPEDSPSVRMEAKVENEYTISVKAPNLSSGNVSLKIYSGDLVVCETVISYYTDMEEIGNLLSNAANPVEFMCQAFKIVPYNTETLDKLLTESLKNNIPASGLHLFGINQLEEEDMMTNQRDEELPTLLHFAAKYGLKNLTALLLTCPGALQAYSVANKHGHYPNTIAEKHGFRDLRQFIDEYVETVDMLKSHIKEELMHGEEADAVYESMAHLSTDLLMKCSLNPGCDEDLYESMAAFVPAATEDLYVEMLQASTSNPIPGDGFSRATKDSMIRKFLEGNSMGMTNLERDQCHLGQEEDVYHTVDDDEAFSVDLASRPPVPVPRPETTAPGAHQLPDNEPYIFKVFAEKSQERPGNFYVSSESIRKGPPVRPWRDRPQSSIYDPFAGMKTPGQRQLITLQEQVKLGIVNVDEAVLHFKEWQLNQKKRSESFRFQQENLKRLRDSITRRQREKQKSGKQTDLEITVPIRHSQHLPAKVEFGVYESGPRKSVIPPRTELRRGDWKTDSTSSTASSTSNRSSTRSLLSVSSGMEGDNEDNEVPEVTRSRSPGPPQVDGTPTMSLERPPRVPPRAASQRPPTRETFHPPPPVPPRGR
B7: DDC (protein, UniProt P20711 1-480, looked up)
Aromatic-L-amino-acid …: MNASEFRRRGKEMVDYMANYMEGIEGRQVYPDVEPGYLRPLIPAAAPQEPDTFEDIINDVEKIIMPGVTHWHSPYFFAYFPTASSYPAMLADMLCGAIGCIGFSWAASPACTELETVMMDWLGKMLELPKAFLNEKAGEGGGVIQGSASEATLVALLAARTKVIHRLQAASPELTQAAIMEKLVAYSSDQAHSSVERAGLIGGVKLKAIPSDGNFAMRASALQEALERDKAAGLIPFFMVATLGTTTCCSFDNLLEVGPICNKEDIWLHVDAAYAGSAFICPEFRHLLNGVEFADSFNFNPHKWLLVNFDCSAMWVKKRTDLTGAFRLDPTYLKHSHQDSGLITDYRHWQIPLGRRFRSLKMWFVFRMYGVKGLQAYIRKHVQLSHEFESLVRQDPRFEICVEVILGLVCFRLKGSNKVNEALLQRINSAKKIHLVPCHLRDKFVLRFAICSRTVESAHVQRAWEHIKELAADVLRAERE
B8: LAIR-2 (protein, UniProt Q6ISS4 22-152, looked up)
Leukocyte-associated …: QEGALPRPSISAEPGTVISPGSHVTFMCRGPVGVQTFRLEREDRAKYKDSYNVFRLGPSESEARFHIDSVSEGNAGLYRCLYYKPPGWSEHSDFLELLVKESSGGPDSPDTEPGSSAGTVPGTEASGFDAP
B9: SMAD1 (protein, UniProt Q15797 1-465, looked up)
Mothers against …: MNVTSLFSFTSPAVKRLLGWKQGDEEEKWAEKAVDALVKKLKKKKGAMEELEKALSCPGQPSNCVTIPRSLDGRLQVSHRKGLPHVIYCRVWRWPDLQSHHELKPLECCEFPFGSKQKEVCINPYHYKRVESPVLPPVLVPRHSEYNPQHSLLAQFRNLGQNEPHMPLNATFPDSFQQPNSHPFPHSPNSSYPNSPGSSSSTYPHSPTSSDPGSPFQMPADTPPPAYLPPEDPMTQDGSQPMDTNMMAPPLPSEINRGDVQAVAYEEPKHWCSIVYYELNNRVGEAFHASSTSVLVDGFTDPSNNKNRFCLGLLSNVNRNSTIENTRRHIGKGVHLYYVGGEVYAECLSDSSIFVQSRNCNYHHGFHPTTVCKIPSGCSLKIFNNQEFAQLLAQSVNHGFETVYELTKMCTIRMSFVKGWGAEYHRQDVTSTPCWIEIHLHGPLQWLDKVLTQMGSPHNPISSVS
B10: PRTG (protein, UniProt Q2VWP7 36-1150, looked up)
Protogenin: FSELSFVKEPQDVTVTRKDPVVLDCQAHGEVPIKVTWLKNGAKMSENKRIEVLSNGSLYISEVEGRRGEQSDEGFYQCLAMNKYGAILSQKAHLALSTISAFEVQPISTEVHEGGVARFACKISSHPPAVITWEFNRTTLPMTMDRITALPTGVLQIYDVSQRDSGNYRCIAATVAHRRKSMEASLTVIPAKESKSFHTPTIIAGPQNITTSLHQTVVLECMATGNPKPIISWSRLDHKSIDVFNTRVLGNGNLMISDVRLQHAGVYVCRATTPGTRNFTVAMATLTVLAPPSFVEWPESLTRPRAGTARFVCQAEGIPSPKMSWLKNGRKIHSNGRIKMYNSKLVINQIIPEDDAIYQCMAENSQGSILSRARLTVVMSEDRPSAPYNVHAETMSSSAILLAWERPLYNSDKVIAYSVHYMKAEGLNNEEYQVVIGNDTTHYIIDDLEPASNYTFYIVAYMPMGASQMSDHVTQNTLEDVPLRPPEISLTSRSPTDILISWLPIPAKYRRGQVVLYRLSFRLSTENSIQVLELPGTTHEYLLEGLKPDSVYLVRITAATRVGLGESSVWTSHRTPKATSVKAPKSPELHLEPLNCTTISVRWQQDVEDTAAIQGYKLYYKEEGQQENGPIFLDTKDLLYTLSGLDPRRKYHVRLLAYNNIDDGYQADQTVSTPGCVSVRDRMVPPPPPPHHLYAKANTSSSIFLHWRRPAFTAAQIINYTIRCNPVGLQNASLVLYLQTSETHMLVQGLEPNTKYEFAVRLHVDQLSSPWSPVVYHSTLPEAPAGPPVGVKVTLIEDDTALVSWKPPDGPETVVTRYTILYASRKAWIAGEWQVLHREGAITMALLENLVAGNVYIVKISASNEVGEGPFSNSVELAVLPKETSESNQRPKRLDSADAKVYSGYYHLDQKSMTGIAVGVGIALTCILICVLILIYRSKARKSSASKTAQNGTQQLPRTSASLASGNEVGKNLEGAVGNEESLMPMIMPNSFIDAKGGTDLIINSYGPIIKNNSKKKWFFFQDSKKIQVEQPQRRFTPAVCFYQPGTTVLISDEDSPSSPGQTTSFSRPFGVAADTEHSANSEGSHETGDSGRFSHESNDEIHLSSVISTTPPNL

In this test the test system is plasma proteins. Briefly: Plasma proteins modulated between baseline and day 28 in responders (CR, VGPR, PR; n = 19), Example 6 (Table 13). It counts as in vivo, human. Particulars: plasma protein (OLINK NPX); responders (CR, VGPR, PR; n = 19); itacitinib 200 mg or 300 mg QD with corticosteroids; day 28 vs baseline. An outline of the steps:
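Plasma at baseline/screening and day 28 profiled for >1000 proteins by OLINK proximity extension assay, reported as NPX (log2). Steroid-naive and steroid-refractory patients pooled. Paired and unpaired t tests, ANOVA and Pearson correlation applied; significance at P<0.05.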
Consider B1, for which the “Fold Change, Increased Expression from Baseline to Day 28” value (“Fold Change, Increased Expression” below) came to 1.285. Same read-out and setting: next, B2: 1.0895; B3: 1.12. Turning to B4, the “Fold Change, Decreased Expression from Baseline to Day 28” value is recorded as −1.4974. Still for that read-out and setting: next, B5: −1.4472. Still for that read-out and setting: for B6 the value was −1.7193. Turning to B7, the “Fold Change, Increased Expression” value turned out to be 1.5485. With B8, the “Fold Change, Decreased Expression from Baseline to Day 28” value was −1.8117. Still for that read-out and setting: for B9 the value was −1.3807. With B10, the “Fold Change, Increased Expression” value is 1.1026.
